Literature values as cited in article PMC4250281.

Biological target: 14-3-3 zeta (Homo sapiens) (UniProt P63104)
Sequence of UniProt P63104 (P63104 whole entry): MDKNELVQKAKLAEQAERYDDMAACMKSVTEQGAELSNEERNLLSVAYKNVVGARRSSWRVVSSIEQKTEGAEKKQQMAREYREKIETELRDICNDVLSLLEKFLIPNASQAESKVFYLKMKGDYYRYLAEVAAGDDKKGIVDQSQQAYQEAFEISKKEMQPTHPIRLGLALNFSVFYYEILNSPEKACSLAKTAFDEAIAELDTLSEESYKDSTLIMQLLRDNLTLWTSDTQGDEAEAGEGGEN

- Kd: 122 nM
Substance: Raf-1
